Earlier results on one substance are cited in publication PMC4681696.

The series has as its target p75NTR (Homo sapiens) (UniProt P08138).
Chain of UniProt P08138 (P08138 29-250): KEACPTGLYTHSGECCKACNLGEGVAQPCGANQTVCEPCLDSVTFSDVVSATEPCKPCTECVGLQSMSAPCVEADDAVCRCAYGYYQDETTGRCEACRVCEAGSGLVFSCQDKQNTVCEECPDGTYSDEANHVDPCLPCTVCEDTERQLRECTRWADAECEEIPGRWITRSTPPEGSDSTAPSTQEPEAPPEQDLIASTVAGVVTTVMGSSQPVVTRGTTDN

For orientation: Kd means the free concentration of one partner at which half of the binding sites on the other are occupied at equilibrium, for simple one-to-one binding. Regarding NGF (from UniProt P01138), the Kd is 7 nM.
